This passage reports attenuation of inward currents induced by the non-specific nAChR agonist DMPP (50 μM) in CA1 hippocampal interneurons in the presence of 6 μM Lypd6, whole-cell patch clamp and average reduction of inward currents induced by nicotine (100 μM) in CA1 hippocampal interneurons in the presence of 6 μM Lypd6, whole-cell patch clamp results from article PMC5017906.

The test deals with nAChRs on CA1 hippocampal interneurons (not stated (rat brain slices in the text, NMRI mice in the methods)).

B1: Recombinant human GST-tagged Lypd6 (LY6/PLAUR domain-containing 6), Q86Y78 23-147 (natural protein)
chain: AQSRDFTVKDIIYLHPSTTPYPGGFKCFTCEKAADNYECNRWAPDIYCPRETRYCYTQHTMEVTGNSISVTKRCVPLEECLSTGCRDSEHEGHKVCTSCCEGNICNLPLPRNETDATFATTSPIN
As for B1, the attenuation of inward currents induced by the non-specific nAChR agonist DMPP (50 μM) in CA1 hippocampal interneurons in the presence of 6 μM Lypd6, whole-cell patch clamp was found to be 74.8% and the average reduction of inward currents induced by nicotine (100 μM) in CA1 hippocampal interneurons in the presence of 6 μM Lypd6, whole-cell patch clamp at −60 mV came out at 57.4%.
